Results as given in US12630600B2 (MEDIMMUNE LIMITED, priority 2022, dated 2026).
Starred links: 1 amine or outer side, 2 acyl side, 3 side chain; linkers in the order of their positions; H or OH if unused. Non-standard residues stand in square brackets, D forms with d. Groups on a side chain read outwards from the residue. No end group written: not given here. *: point of attachment. C20 diacid = O=C(O)CCCCCCCCCCCCCCCCCCC(=O)*; C18 diacid = O=C(O)CCCCCCCCCCCCCCCCC(=O)*; γGlu = O=C(O)[C@H](CCC(=O)[*:2])N[*:1]; αMeF = C[C@](N)(Cc1ccccc1)C(=O)O; AEEA = NCCOCCOCC(=O)O; Aib = CC(C)(N)C(=O)O

B1: Peptide 410 (peptide)
peptide: H[Aib]QGTFTSDVSK[αMeF]LDTK([AEEA-AEEA-γGlu-C20 diacid])RARDFVAWLL[Aib]TE-OH
modifications: N-terminus assumed
SMILES: CC(C)C[C@H](NC(=O)[C@H](Cc1c[nH]c2ccccc12)NC(=O)[C@H](C)NC(=O)[C@@H](NC(=O)[C@H](Cc1ccccc1)NC(=O)[C@H](CC(=O)O)NC(=O)[C@H](CCCNC(=N)N)NC(=O)[C@H](C)NC(=O)[C@H](CCCNC(=N)N)NC(=O)[C@H](CCCCNC(=O)COCCOCCNC(=O)COCCOCCNC(=O)CC[C@H](NC(=O)CCCCCCCCCCCCCCCCCCC(=O)O)C(=O)O)NC(=O)[C@@H](NC(=O)[C@H](CC(=O)O)NC(=O)[C@H](CC(C)C)NC(=O)[C@](C)(Cc1ccccc1)NC(=O)[C@H](CCCCN)NC(=O)[C@H](CO)NC(=O)[C@@H](NC(=O)[C@H](CC(=O)O)NC(=O)[C@H](CO)NC(=O)[C@@H](NC(=O)[C@H](Cc1ccccc1)NC(=O)[C@@H](NC(=O)CNC(=O)[C@H](CCC(N)=O)NC(=O)C(C)(C)NC(=O)[C@@H](N)Cc1c[nH]cn1)[C@@H](C)O)[C@@H](C)O)C(C)C)[C@@H](C)O)C(C)C)C(=O)N[C@@H](CC(C)C)C(=O)NC(C)(C)C(=O)N[C@H](C(=O)N[C@@H](CCC(=O)O)C(=O)O)[C@@H](C)O
B2: Peptide 407 (peptide)
peptide: H[Aib]QGTFTSDVSK[αMeF]LDTK([AEEA-AEEA-γGlu-C20 diacid])RAQDFVRWLEA[Aib]G-OH
modifications: N-terminus assumed
SMILES: CC(C)C[C@H](NC(=O)[C@H](Cc1c[nH]c2ccccc12)NC(=O)[C@H](CCCNC(=N)N)NC(=O)[C@@H](NC(=O)[C@H](Cc1ccccc1)NC(=O)[C@H](CC(=O)O)NC(=O)[C@H](CCC(N)=O)NC(=O)[C@H](C)NC(=O)[C@H](CCCNC(=N)N)NC(=O)[C@H](CCCCNC(=O)COCCOCCNC(=O)COCCOCCNC(=O)CC[C@H](NC(=O)CCCCCCCCCCCCCCCCCCC(=O)O)C(=O)O)NC(=O)[C@@H](NC(=O)[C@H](CC(=O)O)NC(=O)[C@H](CC(C)C)NC(=O)[C@](C)(Cc1ccccc1)NC(=O)[C@H](CCCCN)NC(=O)[C@H](CO)NC(=O)[C@@H](NC(=O)[C@H](CC(=O)O)NC(=O)[C@H](CO)NC(=O)[C@@H](NC(=O)[C@H](Cc1ccccc1)NC(=O)[C@@H](NC(=O)CNC(=O)[C@H](CCC(N)=O)NC(=O)C(C)(C)NC(=O)[C@@H](N)Cc1c[nH]cn1)[C@@H](C)O)[C@@H](C)O)C(C)C)[C@@H](C)O)C(C)C)C(=O)N[C@@H](CCC(=O)O)C(=O)N[C@@H](C)C(=O)NC(C)(C)C(=O)NCC(=O)O
B3: Peptide 412 (peptide)
peptide: H[Aib]QGTFTSDVSK[αMeF]LDTK([AEEA-AEEA-γGlu-C20 diacid])RAQDFVAWLEAGG-OH
modifications: N-terminus assumed
SMILES: CC(C)C[C@H](NC(=O)[C@H](Cc1c[nH]c2ccccc12)NC(=O)[C@H](C)NC(=O)[C@@H](NC(=O)[C@H](Cc1ccccc1)NC(=O)[C@H](CC(=O)O)NC(=O)[C@H](CCC(N)=O)NC(=O)[C@H](C)NC(=O)[C@H](CCCNC(=N)N)NC(=O)[C@H](CCCCNC(=O)COCCOCCNC(=O)COCCOCCNC(=O)CC[C@H](NC(=O)CCCCCCCCCCCCCCCCCCC(=O)O)C(=O)O)NC(=O)[C@@H](NC(=O)[C@H](CC(=O)O)NC(=O)[C@H](CC(C)C)NC(=O)[C@](C)(Cc1ccccc1)NC(=O)[C@H](CCCCN)NC(=O)[C@H](CO)NC(=O)[C@@H](NC(=O)[C@H](CC(=O)O)NC(=O)[C@H](CO)NC(=O)[C@@H](NC(=O)[C@H](Cc1ccccc1)NC(=O)[C@@H](NC(=O)CNC(=O)[C@H](CCC(N)=O)NC(=O)C(C)(C)NC(=O)[C@@H](N)Cc1c[nH]cn1)[C@@H](C)O)[C@@H](C)O)C(C)C)[C@@H](C)O)C(C)C)C(=O)N[C@@H](CCC(=O)O)C(=O)N[C@@H](C)C(=O)NCC(=O)NCC(=O)O
B4: Peptide 411 (peptide)
peptide: H[Aib]QGTFTSDVSK[αMeF]LDTK([AEEA-AEEA-γGlu-C18 diacid])RAQDFVAWLEAGG-OH
modifications: N-terminus assumed
SMILES: CC(C)C[C@H](NC(=O)[C@H](Cc1c[nH]c2ccccc12)NC(=O)[C@H](C)NC(=O)[C@@H](NC(=O)[C@H](Cc1ccccc1)NC(=O)[C@H](CC(=O)O)NC(=O)[C@H](CCC(N)=O)NC(=O)[C@H](C)NC(=O)[C@H](CCCNC(=N)N)NC(=O)[C@H](CCCCNC(=O)COCCOCCNC(=O)COCCOCCNC(=O)CC[C@H](NC(=O)CCCCCCCCCCCCCCCCC(=O)O)C(=O)O)NC(=O)[C@@H](NC(=O)[C@H](CC(=O)O)NC(=O)[C@H](CC(C)C)NC(=O)[C@](C)(Cc1ccccc1)NC(=O)[C@H](CCCCN)NC(=O)[C@H](CO)NC(=O)[C@@H](NC(=O)[C@H](CC(=O)O)NC(=O)[C@H](CO)NC(=O)[C@@H](NC(=O)[C@H](Cc1ccccc1)NC(=O)[C@@H](NC(=O)CNC(=O)[C@H](CCC(N)=O)NC(=O)C(C)(C)NC(=O)[C@@H](N)Cc1c[nH]cn1)[C@@H](C)O)[C@@H](C)O)C(C)C)[C@@H](C)O)C(C)C)C(=O)N[C@@H](CCC(=O)O)C(=O)N[C@@H](C)C(=O)NCC(=O)NCC(=O)O
B5: Peptide 408 (peptide)
peptide: H[Aib]QGTFTSDVSK[αMeF]LDTK([AEEA-AEEA-γGlu-γGlu-C20 diacid])RAQDFVRWLEA[Aib]G-OH
modifications: N-terminus assumed
SMILES: CC(C)C[C@H](NC(=O)[C@H](Cc1c[nH]c2ccccc12)NC(=O)[C@H](CCCNC(=N)N)NC(=O)[C@@H](NC(=O)[C@H](Cc1ccccc1)NC(=O)[C@H](CC(=O)O)NC(=O)[C@H](CCC(N)=O)NC(=O)[C@H](C)NC(=O)[C@H](CCCNC(=N)N)NC(=O)[C@H](CCCCNC(=O)COCCOCCNC(=O)COCCOCCNC(=O)CC[C@H](NC(=O)CC[C@H](NC(=O)CCCCCCCCCCCCCCCCCCC(=O)O)C(=O)O)C(=O)O)NC(=O)[C@@H](NC(=O)[C@H](CC(=O)O)NC(=O)[C@H](CC(C)C)NC(=O)[C@](C)(Cc1ccccc1)NC(=O)[C@H](CCCCN)NC(=O)[C@H](CO)NC(=O)[C@@H](NC(=O)[C@H](CC(=O)O)NC(=O)[C@H](CO)NC(=O)[C@@H](NC(=O)[C@H](Cc1ccccc1)NC(=O)[C@@H](NC(=O)CNC(=O)[C@H](CCC(N)=O)NC(=O)C(C)(C)NC(=O)[C@@H](N)Cc1c[nH]cn1)[C@@H](C)O)[C@@H](C)O)C(C)C)[C@@H](C)O)C(C)C)C(=O)N[C@@H](CCC(=O)O)C(=O)N[C@@H](C)C(=O)NC(C)(C)C(=O)NCC(=O)O
B6: Peptide 414 (peptide)
peptide: H[Aib]QGTFTSDVSK[αMeF]LDKK([AEEA-AEEA-γGlu-C18 diacid])RARDFVRWLL[Aib]E-OH
modifications: N-terminus assumed
SMILES: CC(C)C[C@H](NC(=O)[C@H](Cc1c[nH]c2ccccc12)NC(=O)[C@H](CCCNC(=N)N)NC(=O)[C@@H](NC(=O)[C@H](Cc1ccccc1)NC(=O)[C@H](CC(=O)O)NC(=O)[C@H](CCCNC(=N)N)NC(=O)[C@H](C)NC(=O)[C@H](CCCNC(=N)N)NC(=O)[C@H](CCCCNC(=O)COCCOCCNC(=O)COCCOCCNC(=O)CC[C@H](NC(=O)CCCCCCCCCCCCCCCCC(=O)O)C(=O)O)NC(=O)[C@H](CCCCN)NC(=O)[C@H](CC(=O)O)NC(=O)[C@H](CC(C)C)NC(=O)[C@](C)(Cc1ccccc1)NC(=O)[C@H](CCCCN)NC(=O)[C@H](CO)NC(=O)[C@@H](NC(=O)[C@H](CC(=O)O)NC(=O)[C@H](CO)NC(=O)[C@@H](NC(=O)[C@H](Cc1ccccc1)NC(=O)[C@@H](NC(=O)CNC(=O)[C@H](CCC(N)=O)NC(=O)C(C)(C)NC(=O)[C@@H](N)Cc1c[nH]cn1)[C@@H](C)O)[C@@H](C)O)C(C)C)C(C)C)C(=O)N[C@@H](CC(C)C)C(=O)NC(C)(C)C(=O)N[C@@H](CCC(=O)O)C(=O)O
B7: Peptide 409 (peptide)
peptide: H[Aib]QGTFTSDVSK[αMeF]LDTK([AEEA-AEEA-γGlu-C18 diacid])RARDFVAWLL[Aib]TE-OH
modifications: N-terminus assumed
SMILES: CC(C)C[C@H](NC(=O)[C@H](Cc1c[nH]c2ccccc12)NC(=O)[C@H](C)NC(=O)[C@@H](NC(=O)[C@H](Cc1ccccc1)NC(=O)[C@H](CC(=O)O)NC(=O)[C@H](CCCNC(=N)N)NC(=O)[C@H](C)NC(=O)[C@H](CCCNC(=N)N)NC(=O)[C@H](CCCCNC(=O)COCCOCCNC(=O)COCCOCCNC(=O)CC[C@H](NC(=O)CCCCCCCCCCCCCCCCC(=O)O)C(=O)O)NC(=O)[C@@H](NC(=O)[C@H](CC(=O)O)NC(=O)[C@H](CC(C)C)NC(=O)[C@](C)(Cc1ccccc1)NC(=O)[C@H](CCCCN)NC(=O)[C@H](CO)NC(=O)[C@@H](NC(=O)[C@H](CC(=O)O)NC(=O)[C@H](CO)NC(=O)[C@@H](NC(=O)[C@H](Cc1ccccc1)NC(=O)[C@@H](NC(=O)CNC(=O)[C@H](CCC(N)=O)NC(=O)C(C)(C)NC(=O)[C@@H](N)Cc1c[nH]cn1)[C@@H](C)O)[C@@H](C)O)C(C)C)[C@@H](C)O)C(C)C)C(=O)N[C@@H](CC(C)C)C(=O)NC(C)(C)C(=O)N[C@H](C(=O)N[C@@H](CCC(=O)O)C(=O)O)[C@@H](C)O

Biological target: human GLP-1 receptor (human, UniProt P43220)
Test: cell-based or functional assay

Row | Binder | cAMP production EC50 [pM]
1 | B1 | 78
2 | B2 | 209
3 | B3 | 186
4 | H[Aib]QGTFTSDVSK[αMeF]LDTK([AEEA-AEEA-γGlu-γGlu-C20 diacid])RAQDFVAWLEAGG-OH [Peptide 413] | 406
5 | B4 | 98.1
6 | B5 | 370
7 | B6 | 32.3
8 | B7 | 22.7

Biological target: human glucagon receptor (human, UniProt P47871)
Test: cell-based or functional assay

Row | Binder | cAMP production EC50 [pM]
9 | B1 | 455
10 | B2 | 462
11 | B3 | 397
12 | H[Aib]QGTFTSDVSK[αMeF]LDTK([AEEA-AEEA-γGlu-γGlu-C20 diacid])RAQDFVAWLEAGG-OH [Peptide 413] | 1020
13 | B4 | 378
14 | B5 | 828
15 | B6 | 26.9
16 | B7 | 203
